Experimental data taken from patent US20200308257A1 (VISTERRA, published 2020).
Where “and” joins values, the source holds several entries; their conditions need not be identical. Equal entries are not always repeated.

Experiments:
Assay in all cases: cell-based or functional assay
[1] = biological target: hemagglutinin (HA) of influenza A/Florida/70702/2017 (H1N1) (influenza A virus (H1N1))
[2] = biological target: hemagglutinin (HA) of influenza A/Serbia/0502013/2018 (H1N1) (influenza A virus (H1N1))
[3] = biological target: hemagglutinin (HA) of influenza A/Florida/70327/2017 (H3N2) (influenza A virus (H3N2))
[4] = biological target: hemagglutinin (HA) of influenza A/Kansas/14/2017 (H3N2) (influenza A virus (H3N2))
[5] = biological target: hemagglutinin (HA) of influenza A/Florida/71268/2017 (H3N2) (influenza A virus (H3N2))
[6] = biological target: hemagglutinin (HA) of influenza A/Bulgaria/0106011/2018 (H3N2) (influenza A virus (H3N2))
[7] = biological target: hemagglutinin (HA) of influenza A/France/1306001/2018 (H1N1) (influenza A virus (H1N1))
[8] = biological target: hemagglutinin (HA) of influenza A/Spain/2604004/2018 (H3N2) (influenza A virus (H3N2))
[9] = biological target: hemagglutinin (HA) of influenza A/Bulgaria/10101/2017 (H3N2) (influenza A virus (H3N2))
[10] = biological target: hemagglutinin (HA) of influenza A/Spain/2609001/2018 (H1N1) (influenza A virus (H1N1))
[11] = biological target: hemagglutinin (HA) of influenza A/France/1307001/2018 (H1N1) (influenza A virus (H1N1))
[12] = biological target: hemagglutinin (HA) of influenza A/Latvia/30314/2017 (H3N2) (influenza A virus (H3N2))
[13] = biological target: hemagglutinin (HA) of influenza A/Malay sia/1701001/2018 (H1N1) (influenza A virus (H1N1))
[14] = biological target: hemagglutinin (HA) of influenza A/Latvia/0303004/2018 (H3N2) (influenza A virus (H3N2))
[15] = biological target: hemagglutinin (HA) of influenza A/Ohio/0717002/2018 (H3N2) (influenza A virus (H3N2))
[16] = biological target: hemagglutinin (HA) of influenza A/Georgia/0720003/2018 (H3N2) (influenza A virus (H3N2))
[17] = biological target: hemagglutinin (HA) of influenza A/Singapore/INFIMH-16 0019/2016 (H3N2) (influenza A virus (H3N2))
[18] = biological target: hemagglutinin (HA) of influenza A/Belarus/1003001/2018 (H3N2) (influenza A virus (H3N2))
[19] = biological target: hemagglutinin (HA) of influenza A/Switzerland/8060/2017 (H3N2) (influenza A virus (H3N2))
[20] = biological target: hemagglutinin (HA) of influenza A/Latvia/30101/2017 (H3N2) (influenza A virus (H3N2))
[21] = biological target: hemagglutinin (HA) of influenza A/France/1302001/2018 (H1N1) (influenza A virus (H1N1))
[22] = biological target: hemagglutinin (HA) of influenza A/Thailand/2702006/2018 (H3N2) (influenza A virus (H3N2))
[23] = biological target: hemagglutinin (HA) of influenza A/North Carolina/71330/2017 (H3N2) (influenza A virus (H3N2))
[24] = biological target: hemagglutinin (HA) of influenza A/Brisbane/02/2018 (H1N1) (influenza A virus (H1N1))
[25] = biological target: hemagglutinin (HA) of influenza A/Florida/70604/2017 (H3N2) (influenza A virus (H3N2))
[26] = biological target: hemagglutinin (HA) of influenza A/Spain/2602001/2018 (H1N1) (influenza A virus (H1N1))
[27] = biological target: hemagglutinin (HA) of influenza A/Florida/70303/2017 (H3N2) (influenza A virus (H3N2))
[28] = biological target: hemagglutinin (HA) of influenza A/Thailand/2702008/2018 (H1N1) (influenza A virus (H1N1))
[29] = biological target: hemagglutinin (HA) of influenza A/Serbia/0502016/2018 (H1N1) (influenza A virus (H1N1))
[30] = biological target: hemagglutinin (HA) of influenza A/Florida/70609/2017 (H3N2) (influenza A virus (H3N2))
[31] = biological target: hemagglutinin (HA) of influenza A/Latvia/0303005/2018 (H1N1) (influenza A virus (H1N1))
[32] = biological target: hemagglutinin (HA) of influenza A/Georgia/0720004/2018 (H3N2) (influenza A virus (H3N2))
[33] = biological target: T1, hemagglutinin (HA) of influenza A/Hong Kong/4801/2014 (H3N2) (influenza A virus (H3N2))
[34] = biological target: hemagglutinin (HA) of influenza A/Latvia/0304001/2018 (H1N1) (influenza A virus (H1N1))
[35] = biological target: hemagglutinin (HA) of influenza A/Sydney/0903001/2018 (H3N2) (influenza A virus (H3N2))
[36] = biological target: hemagglutinin (HA) of influenza A/Georgia/0720001/2018 (H1N1) (influenza A virus (H1N1))
[37] = biological target: hemagglutinin (HA) of influenza A/Pennsylvania/0725005/2018 (H3N2) (influenza A virus (H3N2))
[38] = biological target: hemagglutinin (HA) of influenza A/Pennsylvania/0725006/2018 (H3N2) (influenza A virus (H3N2))
[39] = biological target: hemagglutinin (HA) of influenza A/Singapore/2401001/2018 (H3N2) (influenza A virus (H3N2))
[40] = biological target: hemagglutinin (HA) of influenza A/Florida/71210/2017 (H3N2) (influenza A virus (H3N2))
[41] = biological target: hemagglutinin (HA) of influenza A/California/7/2009 (H1N1) (influenza A virus (H1N1))
[42] = biological target: T2, hemagglutinin (HA) of influenza A/Michigan/45/2015 (H1N1)pdm09 (influenza A virus (H1N1))
[43] = biological target: hemagglutinin (HA) of influenza A/California/04/2009 (H1N1) (influenza A virus (H1N1))
[44] = biological target: T1, hemagglutinin (HA) of influenza A/Hong …; remark: listed apart in the source
[45] = biological target: T2, hemagglutinin (HA) of influenza …; remark: listed apart in the source

B1: VIS410 (antibody, V domains shown)
VH: QVQLLETGGGLVKPGQSLKLSCAASGFTFTSYAMHWVRQPPGKGLEWVAVVSYDGNYKYYADSVQGRFTISRDNSKNTLYLQMNSLRAEDTAVYYCAKDSRLRSLLYFEWLSQGYFNPWGQGTTLTVSS
VL: DIQMTQSPSSLSASVGDRVTITCRSSQSITFDYKNYLAWYQQKPGKAPKLLIYWGSYLESGVPSRFSGSGSGTDFTLTISSLQPEDFATYYCQQHYRTPPSFGQGTKVEIK
- IC50, phenotypic IC50 assay (virus infection of MDCK cells) [1]: 0.41 µg/mL
- IC50, phenotypic IC50 assay (virus infection of MDCK cells) [2]: 0.67 µg/mL
- IC50, phenotypic IC50 assay (virus infection of MDCK cells) [3]: 0.67 µg/mL
- IC50, phenotypic IC50 assay (virus infection of MDCK cells) [4]: 2.65 µg/mL
- IC50, phenotypic IC50 assay (virus infection of MDCK cells) [5]: 3.14 µg/mL
- IC50, phenotypic IC50 assay (virus infection of MDCK cells) [6]: 1.67 µg/mL
- IC50, phenotypic IC50 assay (virus infection of MDCK cells) [7]: 0.91 µg/mL
- IC50, phenotypic IC50 assay (virus infection of MDCK cells) [8]: 0.92 µg/mL
- IC50, phenotypic IC50 assay (virus infection of MDCK cells) [9]: 0.22 µg/mL
- IC50, phenotypic IC50 assay (virus infection of MDCK cells) [10]: 0.43 µg/mL
- IC50, phenotypic IC50 assay (virus infection of MDCK cells) [11]: 0.86 µg/mL
- IC50, phenotypic IC50 assay (virus infection of MDCK cells) [12]: 1 µg/mL
- IC50, phenotypic IC50 assay (virus infection of MDCK cells) [13]: 0.4 µg/mL
- IC50, phenotypic IC50 assay (virus infection of MDCK cells) [14]: 4.47 µg/mL
- IC50, phenotypic IC50 assay (virus infection of MDCK cells) [15]: 0.81 µg/mL
- IC50, phenotypic IC50 assay (virus infection of MDCK cells) [16]: 0.49 µg/mL
- IC50, phenotypic IC50 assay (virus infection of MDCK cells) [17]: 1.35 µg/mL
- IC50, phenotypic IC50 assay (virus infection of MDCK cells) [18]: 1.26 µg/mL
- IC50, phenotypic IC50 assay (virus infection of MDCK cells) [19]: 1.07 µg/mL
- IC50, phenotypic IC50 assay (virus infection of MDCK cells) [20]: 0.28 µg/mL
- IC50, phenotypic IC50 assay (virus infection of MDCK cells) [21]: 0.86 µg/mL
- IC50, phenotypic IC50 assay (virus infection of MDCK cells) [22]: 1.13 µg/mL
- IC50, phenotypic IC50 assay (virus infection of MDCK cells) [23]: 0.92 µg/mL
- IC50, phenotypic IC50 assay (virus infection of MDCK cells) [24]: 0.55 µg/mL
- IC50, phenotypic IC50 assay (virus infection of MDCK cells) [25]: 1.23 µg/mL
- IC50, phenotypic IC50 assay (virus infection of MDCK cells) [26]: 0.42 µg/mL
- IC50, phenotypic IC50 assay (virus infection of MDCK cells) [27]: 0.34 µg/mL
- IC50, phenotypic IC50 assay (virus infection of MDCK cells) [28]: 0.55 µg/mL
- IC50, phenotypic IC50 assay (virus infection of MDCK cells) [29]: 0.37 µg/mL
- IC50, phenotypic IC50 assay (virus infection of MDCK cells) [30]: 2.41 µg/mL
- IC50, phenotypic IC50 assay (virus infection of MDCK cells) [31]: 0.87 µg/mL
- IC50, phenotypic IC50 assay (virus infection of MDCK cells) [32]: 0.97 µg/mL
- IC50, phenotypic IC50 assay (virus infection of MDCK cells) [33]: 1.65 µg/mL
- IC50, phenotypic IC50 assay (virus infection of MDCK cells) [34]: 0.57 µg/mL
- IC50, phenotypic IC50 assay (virus infection of MDCK cells) [35]: 1.49 µg/mL
- IC50, phenotypic IC50 assay (virus infection of MDCK cells) [36]: 0.71 µg/mL
- IC50, phenotypic IC50 assay (virus infection of MDCK cells) [37]: 2.2 µg/mL
- IC50, phenotypic IC50 assay (virus infection of MDCK cells) [38]: 1.5 µg/mL
- IC50, phenotypic IC50 assay (virus infection of MDCK cells) [39]: 1.17 µg/mL
- IC50, phenotypic IC50 assay (virus infection of MDCK cells) [40]: 0.97 µg/mL
- IC50, phenotypic IC50 assay (virus infection of MDCK cells) [41]: 0.52 µg/mL
- IC50, phenotypic IC50 assay (virus infection of MDCK cells) [42]: 0.89 µg/mL
- EC50, virus infection of MDCK-London cells (NP ELISA microneutralization) [43]: ~0.006 µM and ~0.9 µg/ml
- EC50, NP ELISA infection assay, both assay formats [44]: 0.01 µM and 0.02 µM
- EC50, virus infection of MDCK-London cells (NP ELISA microneutralization) [44]: ~0.01 µM and ~1.5 µg/ml
- EC50 (µM) - Replicate 1, CPE assay [45]: 0.013 µM
- EC50 (µM) - Replicate 2, CPE assay [45]: 0.011 µM
